One data set concerns the target T1, yedK W68A (Escherichia coli (gene from BL21 …, UniProt P76318 2-222, W68A)).
T1 sequence: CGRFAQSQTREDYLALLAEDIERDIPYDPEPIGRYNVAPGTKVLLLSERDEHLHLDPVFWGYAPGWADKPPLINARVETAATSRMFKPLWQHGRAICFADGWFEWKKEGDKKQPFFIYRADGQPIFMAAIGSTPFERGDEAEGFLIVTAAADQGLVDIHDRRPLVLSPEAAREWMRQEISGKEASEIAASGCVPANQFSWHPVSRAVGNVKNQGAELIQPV
In words: ITC. Background: ITC needs no label: the signal is the heat of the interaction.

A further data set deals with T2, yedK R77A (Escherichia coli (gene from BL21 …, UniProt P76318 2-222, R77A)).
T2 sequence: T1 sequence with A67W, R76A
Briefly: ITC.

Numbering of substitutions follows the chain as printed.

B1: ssDNA (ssDNA)
DNA: CGGTCGATTC
For B1, the binding result with yedK W68A and in the data set with yedK R77A was “no binding” throughout.

(Values after publication PMC6821365.)
